Assay results as given in the DeepSol protein solubility set.

Test: soluble on expression in E. coli; label from the status in PepcDB or PDB records

Row | Sequence | soluble on expression in E. coli
1 | MHHHHHHSSGRENLYFQGSTKGDINQYYTLENTIGRGSWGEVKIAVQKGTRIRRAAKKIPKYFVEDVDRFKQEIEIMKSLDHPNIIRLYETFEDNTDIYLVMELCTGGELFERVVHKRVFRESDAARIMKDVLSAVAYCHKLNVAHRDLKPENFLFLTDSPDSPLKLIDFGLAARFKPGKMMRTKVGTPYYVSPQVLEGLYGPECDEWSAGVMMYVLLCGYPPFSAPTDSEVMLKIREGTFTFPEKDWLNVSPQAESLIRRLLTKSPKQRITSLQALEHEWFEKQLSSSPRNLL | soluble
2 | MDRINGLSDEIICHILSFLPTKESALTSVLSKRWRNLFALTPNLHLVDDDLEVGGCGQTLIDFVDRVLAVSSNLPIREFSIKC | soluble
3 | MEAVVDVVDVEEVVEDVDVVVVDQDAVAVVDLNVVVLVVELVAVLDVVLAADHAVVDVVADVVVDAVDVEVEVVSVVPFKNFELMKPIVHLGLKKDHLMTNVSPIIYSPFIYYHDS | not soluble
4 | MGSDKIHHHHHHMSQLVRPTLELPAGRRKVLLHSCCAPCSGEVMEAMTASGIDYAIYFYNPNIHPVKEYEIRKNENIRFAEEHGIEFIDADYDMDNWFERVKGMENEPERGIRCTACFDMRFERTALYAHEHGFDTITSSLGISRWKDMNQINGCGERAAARYDDLVYWTYNWRKGGGSQRMIEISKRENFYQQEYCGCVYSLRDTNRHRRAQGRERIHLGVKFYGVEEKL | not soluble
5 | MTMSELGSLFEAGYHDILQLLAGQGKSPSGPPFARYFGMSAGTFEVEFGFPVEGGVEGSGRVVTGLTPSGKAASSLYIGPYGEIEAVYDALMKWVDDNGFDLSGEAYEIYLDNPAETAPDQLRTRVSLEHHHHHH | not soluble
6 | MSLAKSVFYYHRCQFDVKDKYGDLKQRITELYHQHKGRYGYRRVTAALKQLDCHHNHKLIAKLMHDMKLSAKIRRQKYRSYKGQQGKIAKNYLKRQFHADKPNKRWLTDITEFKVGDDKLYLSPILDCYNNEIVSYTLSKRPTYDLVGKMLEDALAKTKACRDNKLMLHSDQGWHYQMRLFGQVLKQHGIKQSMSRKGNCLDNALMEGFFGTLKCETIYIEKPNSIEGLEKQIHEYIHYYNHERIQLKLKGLSPVKYRTQSLIEGHHHHHH | not soluble
7 | MGSDKIHHHHHHMKISVSKNDLENALRYLQAFLDKKDASSIASHIHLEVIKEKLFLKASDSDIGLKSYIFTQSSDKEGVGTINGKKFLDIISCLKDSNIILETKDDSLAIKQNKSSFKLPMFDADEFPEFPVIDPKVSIEVNAPFLVDAFKKIAPVIEQTSHKRELAGILMQFDQKHQTLSVVGTDTKRLSYTQLEKISIHSTEEDISCILPKRALLEILKLFYENFSFKSDGMLAVIENEMHTFFTKLIDGNYPDYQKILPKEYISSFTLGKEEFKESIKLCSSLSSTIKLTLEKNNALFESLDSEHSETAKTSVEIEKGLDIEKAFHLGVNAKFFLEALNALGTTQFVLRCNEPSSPFLIQESLDEKQSHLNAKISTLMMPITL | not soluble
8 | GPGSMQRHRTPEPGPRGASSQNPRRPPQTSAKSPARRVSRRSSAATTSAPGGIELTRAQQIEAKAARDAVVGAMTKSSPQAAKMFVESISLDVDVETTRQLLCSKKGFVALPSSIGVLCRQLRKLDLSGNGLTDLSPLATLQHLSNLNVAHNGLLASLKGLSGTCLSVLNISFCAVESLEGLEHTALTLRTFIANDNRLQLHSPLLADVVATAGEDAAEMEAAREHLPESLCRSSSHSGADLRAVAQRNYAIFSTFQQCETVVLSRNTRLCQLFPTWGVEEVAAECGEVPGRSSAAADDEGSDDAADGASTTMSADGDGGDSANRGKKHRASAAKRRDRRRIAVHPTDRSASNTPAAAREPFGDSPEMATYNQRRHALALAHPLSVFERLSRLRKLSLSGCELHSLPVRWFLPMVTELRLAQNHLTSLQPDGVILRSLHILDISNNLFASVASLRRCRYLEQLNVRGNPLIEEGVLQDKAAGLTTAERIADVAATTPSSGTSAAPIAVQQRLLRLFPNMKLLDGQPMMTAGQVRSAYMQRNARSAAERQDKLTEKGCSDGSAIVASLHEARDDVGNAHAASDDSERGSSSGDAPRTAPTARAEARSPARKARRADSAVIAAEADEKDNVVEAPLSVVKTAHAQIVRRERVLLRPGAAAASGSNTGAAGQKRKAGQTPTSPAAVVYGQAAVAKLLEQSRSRSAW | not soluble
9 | MNNKYQMGVSTNLKYKGISLGIDFDIRQGGVMYSRTKDINYFTGNAIQTAYNDRNPLIVPNSVNKIVNGENVTYVENTTPITSSNIYKYWGDGGSDMGSCFLVDKSYVKLRSVVLGWDLPKRWLAKTPFQAVKVSAYGNNLFVWTPSSNTFIDPEMTSFGNDLEGNYGEYTANPSSRRFGFNLMVKF | not soluble
10 | MSLEVPLLEVLLYTDGSVTRILERFFEEVTIDPLETRKLKVEGREARLLGVPDGDTVYVRRVVIKVDGRPAILATSLARPDNLPGRLRRLVLQSRKPLGKMIEELRLETRREILRVEEARPSPEDEEILDVSVPKIPWREYLVYHRRTPMLLIRERFNPEVLGREGEGHHHHHH | not soluble
11 | MQDTIFLKGMRFYGYHGALSAENEIGQIFKVDVTLKVDLSEAGRTDNVIDTVHYGEVFEEVKSIMEGKAVNLLEHLAERIANRINSQYNRVMETKVRITKENPPIPGHYDGVGIEIVRENK | soluble
12 | ADTFNLAKDIHSRILSIDTHTDTPLWFKNGYSVGLRKDNMVSIPKMEEGKLDAQFLAAFIWQGKRDDASSQKAVESTTRLIQSIYDEVEQYKDFCGIALTEEDLVRLKNEGKKAFFIGIENGYAIGKDLKNIKKYKQMGVNYITLCHSYDNDICHSSTHTEDATQGLTQFGREVVKEMNRLGIMIDISHASEGTFWDVIKYSAQPIIASHSSSKALCDHDRNLTDEQLRALAKNGGVAQLCLLDAYINKKTKAASICDAVEHLDHMIKVAGIDHVGIGTDFDGGGGLQGCRGDNDLINLTIKMIEKGYTEEDLRKIWGGNLLRVMKQVQEAPLLSSKKRR | not soluble
13 | MKMTLPFKPHVLALICSAGLCAASAGLYIKSRTVEAPVETQSTQLAVSDAAAVTLPATVSAPPVTPAVVKSAFSTAQIDQWVAPVALYPDALLSQVLMASTYPTNVAQAVQWSHDNPLKQGDAAIQAVSDQPWDASVKSLVAFPQLMALMGENPQWVQNLGDAFLAQPQDVMDSVQRLRQLAQQTGSLKSSTEQKVITTTKKTVPVTQTVTAPVIPSNTVSTANPVITEPATTVISIEPGNPDVVYIPNYNPTVVYGNWANTAYPPVYLPPPAGEPFVDSFVRGFGYSMGVATTYALFSSIDWDDDDHDHHHHDDDNYHHHDGGHRDGNGWQHNGDNINIDVNNFNRITGEHLTDKNMAWRHNPNYRNGVPYHDQDMAKRFHQTDVNGGMSATQLPAPTRDSQRQAAASQFQQRTHAAPVITRDTQRQAAAQRFNEAEHYGSYDDFRDFSRRQPLTQQQKDAARQRYQSASPEQRQAVHEKMQTNPQNQQRREAARERIQPASPEQRQAVREKMQTNPQIQQRRDAARERIQSASPEQRQVFKEKVQQRPLNQQQRDNARQRVQSASPEQRQVFREKVQESRPQRLNDSNHTARLNNEQRSAVRERLSERGARRLER | not soluble
14 | MVPPRGDAVRGPLGPGGESVVERYWEALKGVKDPEIPVLNIVEMGMVLGVEAEGKRVKVRFRPTFSGCPAIQLIREEIVGALKEAGAEEVEVEEARTPWSTEAMTEEAREKLLGYGVAPPLPLPMAGEDPPCPRCGSREVVLKNPFGATLCKTLYQCAACGEVFEAFKTV | soluble
15 | MGSDKIHHHHHHMNFSTTEIQTIFNANEAASAVLNQALEAAAQGTFAVGGMIVDNQTGNVICAMHNNVLKPLFGSSQNFTFDPTAHGERQLVYWYYANRHQLNLPDPEYLTIITTLDPCAMCAGTLLTAGFNVGVIAIDDFAGINYNQTFNFDTLPPDLRPLAKRKFGYYACGIKGVDPDIYVRGYVGGPNVAFKDSVVSVQNLTGCNNVFQANVEAVRNNSSNSGKAPQELFDPAALPDDAPVKLRYRELYADAFRLKIDNPRLPDKNLLDLLLYVKGSNPTAQNAVALLDPFGNVVLCMPDTFENSPVETAFMNVTQAYAITRYQLMNDPFARAQAYDYLTHPKYGTFVFLNAPNPADARTIMTLGAYGSTMEGPVPQIFPSNFQYYFLPQYGTEREFRLDIMNLPPFYTQLAQLSAMQVANY | not soluble
16 | MINIAVDNSIKITIETTVNAPIDMVWEAWTEPEHIKSWNHASDDWHTTEAKNDLRVGGRFVSKMEAKDGSFGFDFGGTYNKVRLYEFISYIMDDDRSVEITFKPEKDKTYIVESFEAEKSNPIDLQQKGWQAILDNFKKYVEENKLRGREKLEHHHHHH | soluble
17 | MEKYEELFARIKEKAKLIDEKIFELIPEKDPRVLYEAARHYPLAGGKRVRPFVVLTSTEAVGGDPLRAIYPAVAIELIHNYSLVHDDIMDMDETRRGKPTVHRIWGVNMAILAGDLLFSKAFEAVARAEIPPEKKARVLEVIVKASNELCEGQARDLEFEKKSTVTIEEYMEMISGKTGALFEASAKVGGIIGTDNEEYIKALSSWGRNVGIAFQIWDDVLDLIADEKKLGKPVGSDIRKGKKTLIVAHFFENADEKDKQRFLKIFGKYAGDVKGRGIIEEDIKSDVMEAIDLLKKYGSIDYAAEIAKDMIKKANEALRILPKSKARMDLELLAKFIVEREY | soluble
18 | GMAYEQFAYVYDELMQDVPYPEWVAWVLEQVEPGKRIADIGCGTGTATLLLADHYEVTGVDLSEEMLEIAQEKAMETNRHVDFWVQDMRELELPEPVDAITILCDSLNYLQTEADVKQTFDSAARLLTDGGKLLFDVHSPYKMETLFNGKTYATHAEQSSYIWFADPGEEPLSVVHELTFFIEGEDGRYDRVDETHHQRTYPPEQYITWLREAGFRVCAVTGDFKSDAPTETAERIFFVAEKI | soluble
19 | MVLAIAGCIEAYRTGHDARHGPRVPWERRLSEEDYLARLAAGSVSYSRDVQPILDSRCVVCHGCYDAPCQLKLESFDGLERGASKTPVYDTTRLQATPPTRLFIDAENVQGWRSKGFFPVLNERGDSPEANLRDSLLFRMLELKKAHPLPVSGALPDTFDFRLDRTLNCPTVEEFDDFEDDHPEWGMPYGFPGLSEREHDIVVKWLREGGFAPPPAPVSAEAASAVAQWEAFLNGSSPKERLFARYVYEHLFLGHLHFRGLAPREFFRLVRSRTPPGEPIREIATTRPYDSPGPGEFYYRLRPVQQSIVAKTHMVYELDDARMRRYRELFLDPEYAVDRLPGYAAADAANPFKTFVAIPPRSRYRFLLDDAHFFFSGFMKGSVCRGQAALNVIQDRFWVAFTHPDADPVSNDAQFLADQAERLRLPAEKENSPGIGDIWYTYRALEEDYQAAKAAWLRAHGERGGTTLADLWDGDGDNRDALLTVFRHFDSASVERGLVGDTPLTGWVVDYPLLERIHYLLVAGFDVFGNVGHQLATRLYMDFMRMEAENNFLRFLPSSIRQAERARWYKGIGARINDLWQSPRWGMGGETLIDYRTGNPKQEFFDRVRAGFGKAAGRPDPFTGCGVEVEGCGEGGEPALPPVQASVERELRRLAFARGGGVAFLPELSYLRIRTGSGGAEDGWIYSLVKNTALENVSMLFLEEIRRTPADDTVTLVRGIVGSYPNFFFDLDAAEVGEFVDAILSVDGSKAFGRRLVERFGVRRSNPAFWRISDWFNRRYLEASPVTAGWLDLSRYDNPLEHHHHHH | not soluble
20 | MSNHHSSCSSRTGGAHRRCDCTEDLTENDKLWNDFEGCAQAVARLYSDSSWRNFRGAAEGTTQLYKTSTDSYRRGFEKGFSSGCTSIAKEILQAFRDPSKIDMNIVLEVLYRNMAIPREERLTVNTQNGISSDTLAAVELFQQALNQPQVPPLSTLSLLPPTTREQTTDTLDEFLASQVQRHRKRQRSPNNSTTSPTSQMKRQRRL | soluble
